Measurements as given in patent US20220195407, “OPTIMIZATION OF ENGINEERED MEGANUCLEASES FOR RECOGNITION SEQUENCES” (Precision BioSciences, Inc., published 2022).

Columns and labels:
Assay in all cases: cell_activity; CHO iGFFP reporter
LOX 3-4m.1044 = target: T1, LOX 3-4m.1044 (artificial (I-CreI derived))
T1 chain: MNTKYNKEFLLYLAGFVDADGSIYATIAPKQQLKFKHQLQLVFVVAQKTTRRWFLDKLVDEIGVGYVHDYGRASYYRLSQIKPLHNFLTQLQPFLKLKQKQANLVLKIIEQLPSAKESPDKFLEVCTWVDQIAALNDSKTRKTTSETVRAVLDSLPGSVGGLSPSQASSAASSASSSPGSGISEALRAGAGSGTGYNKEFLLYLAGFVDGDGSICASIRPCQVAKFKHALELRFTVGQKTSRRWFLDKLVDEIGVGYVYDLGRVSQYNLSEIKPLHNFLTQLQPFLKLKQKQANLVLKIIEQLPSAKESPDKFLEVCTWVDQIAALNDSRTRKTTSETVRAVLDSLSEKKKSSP
Description: (§1) A CHO cell reporter system (see WO/2012/167192, FIG. 3) was used to determine whether the engineered meganucleases generated in these studies could recognize and cleave the modified LOX 3-4 recognition sequences in Table 87. To perform the assay, a pair of CHO cell reporter lines were produced, which carried a non-functional Green Fluorescent Protein (GFP) gene expression cassette integrated into the genome of the cell. The GFP gene in each cell line was interrupted by a pair of recognition sequences such that intracellular cleavage of either recognition sequence by a meganuclease would stimulate a homologous recombination event resulting in a functional GFP gene. In both cell lines, one of the recognition sequences was derived from the LOX 3-4 recognition sequence (i.e., those sequences disclosed in Table 87), and the second recognition sequence was specifically recognized by a control meganuclease called “CHO 23/24.” CHO reporter cells comprising a recognition sequence derived from the LOX 3-4 recognition sequence and the CHO 23/24 recognition sequence are referred to herein as “test cells.”
(§2) Novel engineered meganucleases derived from the LOX 3-4x.109 meganuclease were prepared by making amino acid substitutions at one or more positions in the first subunit and one or more positions in the second subunit. These engineered meganucleases were then evaluated for cleavage of the LOX 3-4 recognition sequence modified to have an ACGA center sequence (SEQ ID NO: 68) in the CHO reporter assay according to Example 1.

LOX 3-4m.1013 = target: T2, LOX 3-4m.1013 (artificial (I-CreI derived))
T2 chain: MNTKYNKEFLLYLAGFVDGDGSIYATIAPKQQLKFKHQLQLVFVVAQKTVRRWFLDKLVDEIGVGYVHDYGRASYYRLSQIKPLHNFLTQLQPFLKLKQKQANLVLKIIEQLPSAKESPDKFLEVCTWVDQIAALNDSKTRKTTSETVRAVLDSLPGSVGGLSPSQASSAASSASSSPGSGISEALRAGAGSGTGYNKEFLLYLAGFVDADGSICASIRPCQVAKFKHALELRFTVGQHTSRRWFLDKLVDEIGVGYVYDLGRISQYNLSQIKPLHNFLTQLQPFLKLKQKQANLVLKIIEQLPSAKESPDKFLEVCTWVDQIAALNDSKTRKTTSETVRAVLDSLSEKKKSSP
Description: as §1, §2

LOX 3-4m.956 = target: T3, LOX 3-4m.956 (artificial (I-CreI derived))
T3 chain: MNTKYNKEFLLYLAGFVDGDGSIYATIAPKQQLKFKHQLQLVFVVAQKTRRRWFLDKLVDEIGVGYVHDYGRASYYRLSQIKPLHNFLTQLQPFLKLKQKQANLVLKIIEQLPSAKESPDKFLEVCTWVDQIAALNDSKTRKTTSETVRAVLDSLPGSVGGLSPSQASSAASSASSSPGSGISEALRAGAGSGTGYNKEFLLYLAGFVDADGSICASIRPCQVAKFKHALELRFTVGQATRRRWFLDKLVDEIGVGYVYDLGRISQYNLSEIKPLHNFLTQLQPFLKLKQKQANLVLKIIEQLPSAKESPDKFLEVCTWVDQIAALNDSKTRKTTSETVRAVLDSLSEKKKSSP
Description: as §1, §2

LOX 3-4m.1036 = target: T4, LOX 3-4m.1036 (artificial (I-CreI derived))
T4 chain: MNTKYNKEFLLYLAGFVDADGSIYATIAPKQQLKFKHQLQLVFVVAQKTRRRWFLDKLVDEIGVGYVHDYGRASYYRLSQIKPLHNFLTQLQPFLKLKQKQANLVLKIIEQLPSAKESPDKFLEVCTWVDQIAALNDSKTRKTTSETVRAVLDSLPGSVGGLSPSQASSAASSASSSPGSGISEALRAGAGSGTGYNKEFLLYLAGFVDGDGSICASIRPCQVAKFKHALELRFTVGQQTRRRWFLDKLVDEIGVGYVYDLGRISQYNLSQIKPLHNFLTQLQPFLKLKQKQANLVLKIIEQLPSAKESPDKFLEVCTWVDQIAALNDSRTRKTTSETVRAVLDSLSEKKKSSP
Description: as §1, §2

LOX 3-4m.869 = target: T5, LOX 3-4m.869 (artificial (I-CreI derived))
T5 chain: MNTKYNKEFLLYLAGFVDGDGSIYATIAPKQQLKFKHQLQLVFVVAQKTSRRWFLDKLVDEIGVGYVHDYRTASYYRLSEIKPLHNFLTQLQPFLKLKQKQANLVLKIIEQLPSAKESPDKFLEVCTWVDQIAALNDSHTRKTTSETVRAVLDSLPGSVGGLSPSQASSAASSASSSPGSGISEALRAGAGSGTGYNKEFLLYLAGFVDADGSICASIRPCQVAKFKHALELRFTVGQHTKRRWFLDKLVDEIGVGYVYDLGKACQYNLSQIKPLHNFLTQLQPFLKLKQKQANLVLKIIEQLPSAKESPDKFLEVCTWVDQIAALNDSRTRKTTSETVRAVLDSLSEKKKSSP
Description: as §1
as §2, with “sequence, which normally comprises” for “sequence modified to have”, “ACAT” for “ACGA”, “44)” for “68)”

LOX 3-4m.893 = target: T6, LOX 3-4m.893 (artificial (I-CreI derived))
T6 chain: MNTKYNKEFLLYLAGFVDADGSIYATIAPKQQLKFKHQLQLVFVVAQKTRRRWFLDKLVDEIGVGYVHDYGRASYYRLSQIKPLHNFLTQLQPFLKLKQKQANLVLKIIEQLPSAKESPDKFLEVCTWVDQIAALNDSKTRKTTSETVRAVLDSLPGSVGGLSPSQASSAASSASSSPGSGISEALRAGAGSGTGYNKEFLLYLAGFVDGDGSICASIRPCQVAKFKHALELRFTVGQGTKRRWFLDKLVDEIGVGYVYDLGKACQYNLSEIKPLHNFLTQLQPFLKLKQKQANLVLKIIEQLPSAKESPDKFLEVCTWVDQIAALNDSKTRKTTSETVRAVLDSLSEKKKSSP
Description: as §1
as §2, with “sequence, which normally comprises” for “sequence modified to have”, “ACAT” for “ACGA”, “44)” for “68)”

LOX 3-4m.949 = target: T7, LOX 3-4m.949 (artificial (I-CreI derived))
T7 chain: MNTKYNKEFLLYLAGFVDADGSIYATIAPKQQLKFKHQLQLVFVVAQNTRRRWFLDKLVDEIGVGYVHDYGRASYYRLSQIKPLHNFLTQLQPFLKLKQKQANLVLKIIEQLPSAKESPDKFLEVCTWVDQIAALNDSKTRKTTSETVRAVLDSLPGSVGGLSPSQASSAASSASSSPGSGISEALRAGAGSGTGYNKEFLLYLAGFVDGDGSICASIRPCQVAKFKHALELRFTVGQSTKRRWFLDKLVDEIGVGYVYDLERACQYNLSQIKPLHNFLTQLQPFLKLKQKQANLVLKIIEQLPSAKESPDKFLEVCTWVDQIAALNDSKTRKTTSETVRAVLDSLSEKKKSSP
Description: as §1
as §2, with “sequence, which normally comprises” for “sequence modified to have”, “ACAT” for “ACGA”, “44)” for “68)”

LOX 3-4m.925 = target: T8, LOX 3-4m.925 (artificial (I-CreI derived))
T8 chain: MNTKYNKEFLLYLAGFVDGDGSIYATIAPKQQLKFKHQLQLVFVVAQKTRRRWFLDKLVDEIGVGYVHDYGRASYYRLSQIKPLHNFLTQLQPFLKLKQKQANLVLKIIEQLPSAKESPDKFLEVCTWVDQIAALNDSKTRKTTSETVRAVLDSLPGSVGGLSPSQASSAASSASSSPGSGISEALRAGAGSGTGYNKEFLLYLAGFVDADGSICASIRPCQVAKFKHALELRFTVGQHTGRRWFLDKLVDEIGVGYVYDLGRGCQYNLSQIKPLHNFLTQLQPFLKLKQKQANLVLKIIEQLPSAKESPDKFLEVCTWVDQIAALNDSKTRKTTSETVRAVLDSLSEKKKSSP
Description: as §1
as §2, with “sequence, which normally comprises” for “sequence modified to have”, “ACAT” for “ACGA”, “44)” for “68)”

LOX 3-4m.524 = target: T9, LOX 3-4m.524 (artificial (I-CreI derived))
T9 chain: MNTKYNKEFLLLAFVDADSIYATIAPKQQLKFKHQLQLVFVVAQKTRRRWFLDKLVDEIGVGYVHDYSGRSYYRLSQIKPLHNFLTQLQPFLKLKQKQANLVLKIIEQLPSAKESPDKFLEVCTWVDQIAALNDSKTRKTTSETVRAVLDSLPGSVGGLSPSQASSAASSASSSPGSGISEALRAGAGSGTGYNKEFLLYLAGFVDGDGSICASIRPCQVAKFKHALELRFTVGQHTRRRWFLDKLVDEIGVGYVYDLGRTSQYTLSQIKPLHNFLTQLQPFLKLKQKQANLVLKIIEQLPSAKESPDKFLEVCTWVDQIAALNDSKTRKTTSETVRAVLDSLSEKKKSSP
Description: as §1
as §2, with “subunit. The N-terminal subunit recognizes the reverse complement of the AG portion of the four base pair center sequence, which is CT, and the C-terminal subunit recognizes the GC portion of the […] center sequence.” for “subunit.”, “a GCAG” for “an ACGA”, “326)” for “68)”, “1. The substitutions in each subunit are provided in Tables 180 and 181, respectively.” for “1.”

LOX 3-4m.494 = target: T10, LOX 3-4m.494 (artificial (I-CreI derived))
T10 chain: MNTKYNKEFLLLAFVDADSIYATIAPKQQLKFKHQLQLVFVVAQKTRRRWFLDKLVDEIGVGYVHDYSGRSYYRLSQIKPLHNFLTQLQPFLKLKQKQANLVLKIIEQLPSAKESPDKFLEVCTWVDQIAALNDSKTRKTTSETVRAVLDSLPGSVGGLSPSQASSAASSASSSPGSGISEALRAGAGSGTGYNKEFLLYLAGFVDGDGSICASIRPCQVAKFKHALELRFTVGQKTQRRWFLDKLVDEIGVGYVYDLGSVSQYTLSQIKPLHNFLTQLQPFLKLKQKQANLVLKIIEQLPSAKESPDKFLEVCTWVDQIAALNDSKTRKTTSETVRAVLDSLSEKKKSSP
Description: as §1
as §2, with “subunit. The N-terminal subunit recognizes the reverse complement of the AG portion of the four base pair center sequence, which is CT, and the C-terminal subunit recognizes the GC portion of the […] center sequence.” for “subunit.”, “a GCAG” for “an ACGA”, “326)” for “68)”, “1. The substitutions in each subunit are provided in Tables 180 and 181, respectively.” for “1.”

LOX 3-4m.509 = target: T11, LOX 3-4m.509 (artificial (I-CreI derived))
T11 chain: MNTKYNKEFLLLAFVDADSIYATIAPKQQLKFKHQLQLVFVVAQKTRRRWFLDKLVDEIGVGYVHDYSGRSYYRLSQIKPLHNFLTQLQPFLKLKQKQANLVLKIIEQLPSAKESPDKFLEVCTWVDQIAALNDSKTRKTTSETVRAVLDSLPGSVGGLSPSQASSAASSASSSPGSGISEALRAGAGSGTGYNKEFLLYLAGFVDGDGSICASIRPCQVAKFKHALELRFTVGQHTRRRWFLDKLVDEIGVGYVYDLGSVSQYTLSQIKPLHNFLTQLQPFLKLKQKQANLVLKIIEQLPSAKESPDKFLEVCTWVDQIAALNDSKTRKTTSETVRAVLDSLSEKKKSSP
Description: as §1
as §2, with “subunit. The N-terminal subunit recognizes the reverse complement of the AG portion of the four base pair center sequence, which is CT, and the C-terminal subunit recognizes the GC portion of the […] center sequence.” for “subunit.”, “a GCAG” for “an ACGA”, “326)” for “68)”, “1. The substitutions in each subunit are provided in Tables 180 and 181, respectively.” for “1.”

B1: LOX 3-4 ACGA (dsDNA)
DNA 1: GTATAGCATACGATATACGAAG
DNA 2: CTTCGTATATCGTATGCTATAC
- activity (LOX 3-4m.1044): 5.8 % GFP
- activity (LOX 3-4m.1013): 1.7 % GFP
- activity (LOX 3-4m.956): 4.7 % GFP
- activity (LOX 3-4m.1036): 5 % GFP

B2: LOX 3-4 ACAT (native LOX 3-4 site, SEQ 6) (dsDNA)
DNA 1: GTATAGCATACATTATACGAAG
DNA 2: CTTCGTATAATGTATGCTATAC
- activity (LOX 3-4m.869): 11.2 % GFP
- activity (LOX 3-4m.893): 13.1 % GFP
- activity (LOX 3-4m.949): 12.5 % GFP
- activity (LOX 3-4m.925): 12.2 % GFP

B3: LOX 3-4 GCAG (dsDNA)
DNA 1: GTATAGCATGCAGTATACGAAG
DNA 2: CTTCGTATACTGCATGCTATAC
- activity (LOX 3-4m.524): 16.6 % GFP
- activity (LOX 3-4m.494): 13.8 % GFP
- activity (LOX 3-4m.509): 13.4 % GFP
